The record followed here is publication PMC10981947.

In general, stoichiometry N refers to a count of units in the complex or per binding partner.

The target in experiment [1] is sugar transporter SemiSWEET, C-terminally GFP-tagged.
Experiment [2] addresses LeuT-AA, dimer interface mutant of LeuT (F488A and Y489A), C-terminally GFP-tagged.
The target in experiment [3] is TrkA^ECD+TM, truncation mutant of TrkA containing the extracellular and transmembrane domains, C-terminally GFP-tagged.
For experiment [4] the target is unchanged. This is another data set of the same source.
The target of experiment [5] is TrkA^TM, truncation mutant of TrkA containing only the transmembrane domain, C-terminally GFP-tagged.
In experiment [6] the target is T1, potassium ion channel KcsA, C-terminally GFP-tagged, P0A334.
T1 chain: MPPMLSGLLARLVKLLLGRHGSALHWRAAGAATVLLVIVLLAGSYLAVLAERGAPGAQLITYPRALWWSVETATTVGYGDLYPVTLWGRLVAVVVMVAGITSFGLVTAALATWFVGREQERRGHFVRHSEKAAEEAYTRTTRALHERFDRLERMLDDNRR
The note with it: remark: other sources report otherwise.

In experiment [1], “sugar transporter SemiSWEET, C-terminally GFP-tagged (natural protein)” yielded a stoichiometry N of 2.

In experiment [2], “LeuT-AA, dimer interface mutant of LeuT (F488A and Y489A), C-terminally GFP-tagged (natural protein)” gave a percent dimer of 36% and a percent monomer of 53%.

On to “TrkA^ECD+TM, truncation mutant of TrkA containing the extracellular and transmembrane domains, C-terminally GFP-tagged (domain or fragment)”, for which, in experiment [3], the percent dimer (no NGF) was 40%, the percent higher-order oligomers (no NGF) came out at 5% and the percent monomer (no NGF) was found to be 55%. Besides, in experiment [4], the percent dimer (NGF-treated, fraction 1) was 47%; the percent higher-order oligomers (NGF-treated, fraction 1) is 30%; the percent monomer (NGF-treated, fraction 1) is 22%.

With “TrkA^TM, truncation mutant of TrkA containing only the transmembrane domain, C-terminally GFP-tagged (domain or fragment)”, in experiment [5], the percent dimer (no NGF) worked out at 35%, the percent higher-order oligomers (no NGF) was determined as 2% and the percent monomer (no NGF) is 60%.

B1: potassium ion channel KcsA, C-terminally GFP-tagged, P0A334 1-160 (natural protein)
chain: T1 chain
In experiment [6], B1 showed a stoichiometry N of 4.
